± gives the standard deviation of the averaged measurements.

The text below walks through data of the supplement of paper PMC10724198.
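Further: PSI is a weighted mean of sequencing reads over stability bins, variants kept only with over 10 reads, mCherry proximal and sfGFP distal, peptide attached via GGGS linker.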

For the data set, the system named is Saccharomyces cerevisiae. Nature of the data set: protein stability index of tFT-peptide fusion (C-terminal peptide) (PSI (0-1 scale)); higher = more stable (slower turnover). The conditions noted are these: genetic background: wild type; temperature: 30 C. Here is the method: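 Multiplexed protein stability (MPS) profiling in S. cerevisiae. Random 12-aa peptides (tFT-X12 library) are fused to the C-terminus of a sfGFP-mCherry tandem fluorescent timer, after mCherry and a GGGS linker. Cells are FACS-sorted into 8 mCherry/sfGFP bins and deep-sequenced. The protein stability index (PSI) is the read-weighted bin average, scaled from 0 (unstable) to 1 (stable). Only peptides with >10 reads are reported; cells were grown at 30 °C in SC-His with glucose.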
GGGEKVMVVGHG displayed a protein stability index of 0.709 ± 0.013.
Take GGGERTAGVGQT: the protein stability index was found to be 0.733 ± 0.05.
As to GGGGARRLAVGQ, the protein stability index came to 0.678 ± 0.015.
Turning to GGGGETGRERKD, the protein stability index was 0.655 ± 0.0061.
The result for GGGGGGGAGGSV reads 0.673 ± 0.0081.
The result for GGGGGGSAVEGG reads 0.674 ± 0.066.
As for GGGGGGVECRVG, the protein stability index was determined as 0.671 ± 0.086.
Turning to GGGGGGWSGACL, the protein stability index is 0.716 ± 0.08.
Turning to GGGGGVGVVRVG, the protein stability index was determined as 0.66 ± 0.032.
As to GGGGIREERVRE, the protein stability index was 0.766 ± 0.19.
In the case of GGGGPVWREPGT it was 0.761 ± 0.01.
GGGGQVWSCRLC yielded a protein stability index of 0.678 ± 0.077.
For GGGGSGGAGGGG, the protein stability index was 0.641 ± 0.0089.
As to GGGGVVAGVCGG, the protein stability index is 0.667 ± 0.098.
For the sequence GGGGVVGVVRVG, the protein stability index was found to be 0.658 ± 0.044.
GGGGVVVVQGAG showed a protein stability index of 0.725 ± 0.058.
GGGLGGGWGVWG came in with a protein stability index of 0.657 ± 0.025.
GGGLGGREPGGS came in with a protein stability index of 0.742 ± 0.15.
The result for GGGLGWVWVKLG reads 0.735 ± 0.073; that for GGGNRMRENGRE, 0.667 ± 0.026.
With GGGPAVEGLVGR, the protein stability index amounted to 0.66 ± 0.045.
In the case of GGGPPARRRRGA it was 0.652 ± 0.023; in that of GGGRGGGFSGGV, 0.655 ± 0.014; in that of GGGRGRAGENTR, 0.681 ± 0.049.
In the case of GGGTVGCVVALA it was 0.64 ± 0.017; in that of GGGVHRAVRPGN, 0.653 ± 0.03; in that of GGGVLTWLGENC, 0.702 ± 0.0082.
Regarding GGGWDAVGVGGP, the protein stability index was determined as 0.7505 ± 0.0022.
GGGWDVRGGCVG returned a protein stability index of 0.724 ± 0.0089.
GGIGVGGGHMLL displayed a protein stability index of 0.656 ± 0.024.
GGLAWSMSGCVG returned a protein stability index of 0.691 ± 0.076.
In turn, GGLGGAGAGVVC showed a protein stability index of 0.694 ± 0.11.
In the case of GGLLLPCGAFGG, the protein stability index came to 0.673 ± 0.06.
The result for GGLVVGCGGMWV reads 0.609 ± 0.0075; that for GGMEGRVACSAQ, 0.74 ± 0.057; that for GGPGVKRPAMDP, 0.688 ± 0.0071.
Turning to GGPNKRTGVWGR, the protein stability index is 0.657 ± 0.0069.
On to GGRGAGSDVGSL, for which the protein stability index is 0.677 ± 0.04.
The result for GGRGGAVEERGG reads 0.67 ± 0.0078.
Consider GGRGWGGEMGGR, for which the protein stability index worked out at 0.7156 ± 0.0052.
The sequence GGRGYRIKRKSV gave a protein stability index of 0.806 ± 0.12.
For the sequence GGRHGSSRTGGY, the protein stability index was determined as 0.696 ± 0.018.
The result for GGRKKEDEEEEA reads 0.651 ± 0.078; that for GGRPDQARPSRH, 0.741 ± 0.043.
The result for GGRRGCFARWAR reads 0.697 ± 0.046; that for GGRRTLFCRFSY, 0.702 ± 0.017; that for GGRVCGGRVEGQ, 0.684 ± 0.007.
The result for GGRVFWGGSRSV reads 0.651 ± 0.033; that for GGRWWGRGVFGG, 0.652 ± 0.028.
Turning to GGSCGFGQGAGG, the protein stability index was 0.685 ± 0.025.
With GGSCTRNLLRYW, the protein stability index was determined as 0.727 ± 0.011.
As to GGSFVLGAALGV, the protein stability index was 0.668 ± 0.039.
In the case of GGSGGRDGLCVG it was 0.738 ± 0.049; in that of GGSLVRGAGVRS, 0.686 ± 0.031.
The sequence GGSWGGGGVFVR had a protein stability index of 0.637 ± 0.083.
In the case of GGTAYFSNRGWA, the protein stability index worked out at 0.595 ± 0.036.
In the case of GGTGGRRGVGHV it was 0.655 ± 0.022; in that of GGVEGGGCVGGG, 0.581 ± 0.014.
In turn, GGVGEFGEGALA gave a protein stability index of 0.689 ± 0.044.
GGVGGFGGAGLG gave a protein stability index of 0.65 ± 0.023.
Regarding GGVGGLGTLCGG, the protein stability index turned out to be 0.661 ± 0.051.
GGVGWGMVEGWR yielded a protein stability index of 0.685 ± 0.057.
GGVGWWWVRGMG returned a protein stability index of 0.741 ± 0.029.
Consider GGVKGTRFLLRG, for which the protein stability index stood at 0.622 ± 0.051.
As for GGVKVRGGMGPE, the protein stability index was 0.684 ± 0.019.
GGVRTLVSRHLP registered a protein stability index of 0.7121 ± 0.0043.
On to GGVSRSRNTRWN, for which the protein stability index was determined as 0.677 ± 0.026.
Consider GGVVGVMWGGVR, for which the protein stability index was found to be 0.624 ± 0.029.
Regarding GGWARGRQGCGG, the protein stability index was found to be 0.782 ± 0.011.
Sequence GGWCGGSGRGAN registered a protein stability index of 0.63 ± 0.04.
GGWGGEVVLWQA registered a protein stability index of 0.678 ± 0.073.
In the case of GGWGSRGRVGDI, the protein stability index was 0.744 ± 0.045.
GGWGTGTSGQGR yielded a protein stability index of 0.715 ± 0.027.
Sequence GGWRGRAGENTR gave a protein stability index of 0.698 ± 0.036.
The sequence GGWWGGGGAWSG registered a protein stability index of 0.689 ± 0.053.
In turn, GHNTPRRVMSRC registered a protein stability index of 0.689 ± 0.037.
The result for GHVEGPGDAESS reads 0.701 ± 0.071.
